Results: US5942663A, “Biocidal proteins” (Zeneca Limited, priority 1991, dated 1999)
No end group written: not given here.

Key:
[1] = test system: Fusarium culmorum; test: Stability of the antifungal activity of the Mj-AMPs; type: cell-based
Method: Antifungal activity was measured by microspectrophotometry as previously described (Broekaert, WF et al; 1990; FEMS Microbiol Lett, 69, 55-60). Routinely, tests were performed with 20 μl of a (filter-sterilized) test solution and 80 μl of a fungal spore suspension (2×10^4 spores/ml) in half strength Potato Dextrose Broth (Difco). Control microcultures contained 20 μl of (sterile) distilled water and 80 μl of the fungal spore suspension. Unless otherwise stated the test organism was Fusarium culmorum and incubation was done at 25° C. for 48 hours. Percent growth inhibition is defined as 100 times the ratio of the corrected absorbance of the control microculture minus the corrected absorbance of the test microculture over the corrected absorbance at 595 nm of the control microculture. The corrected absorbance values equal the absorbance at 595 nm of the culture measured after 48 hours minus the absorbance at 595 nm measured after 30 min. Values of growth inhibition lower than 10% are not indicated on the chromatograms.
Table 1 summarises the results of further testing of the stability of the antifungal activity of the Mj-AMPs. Tests for antifungal activity were performed with 20 μl samples diluted five-fold with growth medium containing Fusarium culmorum spores (2×10^4 spores/ml), according to the assay method given in Example 2. Control samples contained either Mj-AMP1 at 500 μg/ml or Mj-AMP2 at 100 μg/ml in 10 mM sodium phosphate buffer (pH 7). Reduction was done by addition of DTT at 2.5 mM followed by incubation at 37° C. for 2 hours. pH stability was tested in the following buffers: 20 mM glycine-HCl (pH 2 and 3); 20 mM diethanolamine-HCl (pH 10); and 20 mM glycine-NaOH (pH 11). After 1 hour of incubation in the appropriate buffers the samples were dialyzed for 16 hours against 10 mm sodium phosphate buffer (pH 7). For digestions, proteases were added at 100 μg/ml and incubated at 37° C. for 16 hours.

[2] = test system: Alternaria brassicola; type: cell-based; conditions: A brassicola, 48 hours of incubation
[3] = test system: Ascochyta pisi; type: cell-based; conditions: A pisi, 48 hours of incubation
[4] = test system: Botrytis cinerea; type: cell-based; conditions: B cinerea, 48 hours of incubation
[5] = test system: Colletotrichum lindemuthianum; type: cell-based; conditions: C lindemuthianum, 48 hours of incubation
[6] = test system: Fusarium culmorum; type: cell-based; conditions: F culmorum, 48 hours of incubation
[7] = test system: Fusarium oxysporum f.sp. pisi; type: cell-based; conditions: 48 hours of incubation
[8] = test system: Fusarium oxysporum f.sp. lycopersici; type: cell-based; conditions: 48 hours of incubation
[9] = test system: Nectria haematococca; type: cell-based; conditions: N haematococca, 48 hours of incubation
[10] = test system: Phoma betae; type: cell-based; conditions: P betae, 48 hours of incubation
[11] = test system: Pyrenophora tritici-repentis; type: cell-based; conditions: P tritici-repentis, 48 hours of incubation
[12] = test system: Pyricularia oryzae; type: cell-based
[13] = test system: Verticillium dahliae; type: cell-based; conditions: V dahliae, 48 hours of incubation
[14] = test system: Venturia inaequalis; type: cell-based; conditions: V inaequalis, 10 days of incubation
[15] = test system: Saccharomyces cerevisiae; test: Inhibitory activity against yeast; type: cell-based; set-up: key: +++:complete inhibition; +:some inhibition; -:no inhibition
Method: The inhibitory activity of Mj-AMPs against yeast, Saccharomyces cerevisiae was tested. The results shown in Table 5 indicate that Mj-AMPs do inhibit the growth of yeast at concentrations of 500 μg/ml or above.

[16] = test system: Bacillus megaterium; test: Antibacterial activity in vitro test; type: cell-based; conditions: B megaterium, 48 hours
Method: (§1) The antibacterial activity of the Mj-AMPs was tested against a range of gram-positive and gram-negative bacteria: Bacillus megaterium, Sarcina lutea, Escherichia coli and Erwinia carotovora. β-purothionin and UDA were also tested for comparison (see Example 7). Tests were performed in soft agarose medium containing 1% tryptone and, with or without 1 mM CaCl2 and 50 mM KCl. Absorbance, 595 nm, of the culture was measured after 48 hours.

[17] = test system: Erwinia carotovora; test: Antibacterial activity in vitro test; type: cell-based; conditions: E carotovora, 48 hours
Method: as §1

[18] = test system: Escherichia coli; test: Antibacterial activity in vitro test; type: cell-based; conditions: E coli, 48 hours
Method: as §1

[19] = test system: Sarcina lutea; test: Antibacterial activity in vitro test; type: cell-based; conditions: S lutea, 48 hours
Method: as §1

[20] = Isoelectric focusing; type: physicochemical; conditions: isoelectric focusing on Immobiline Dry Strips
Method: PAS staining for glycoproteins was done by the method of Zacharius, RM et al (1969; Anal Biochem, 30, 148-152) using ovalbumin (3.2% carbohydrate) as a positive control sample. The pI values of Mj-AMP1 and Mj-AMP2 were determined by isoelectric focusing and found to be about 10.5 for both proteins. Isoelectric focussing was done on precast Immobiline Dry Strips (Pharmacia) using marker proteins in the pI range from 4.7 to 10.6 (Pharmacia).

[21] = MEDIUM +Ca/K (1 mM CaCl2 and 50 mM KCl)

Mj-AMP2: antimicrobial protein from Mirabilis jalapa seeds, dimer of two 3.5 kDa subunits, 36 residues, SEQ ID NO:2 (CIGNGGRCNENVGPPYCCSGFCLRQPNQGYGVCRNR; cysteine pairing not given here; also: homodimer)
Relative antifungal activity (shown as % of control activity) ([1]; 80° C., 10 min): 100 % of control activity
Relative antifungal activity (shown as % of control activity) ([1]; 90° C., 10 min): 100 % of control activity
Relative antifungal activity (shown as % of control activity) ([1]; 100° C., 10 min): 100 % of control activity
Relative antifungal activity (shown as % of control activity) ([1]; Chymotrypsin digestion, 100 μg/ml, 37° C., 16 hours): 50 % of control activity
Relative antifungal activity (shown as % of control activity) ([1]; Control: Mj-AMP1 500 μg/ml or Mj-AMP2 100 μg/ml in 10 mM sodium phosphate buffer pH 7): 100 % of control activity
Relative antifungal activity (shown as % of control activity) ([1]; Pronase E digestion, 100 μg/ml, 37° C., 16 hours): 25 % of control activity
Relative antifungal activity (shown as % of control activity) ([1]; Proteinase K digestion, 100 μg/ml, 37° C., 16 hours): 100 % of control activity
Relative antifungal activity (shown as % of control activity) ([1]; Reduction: DTT 2.5 mM, 37° C., 2 hours): < 3 % of control activity
Relative antifungal activity (shown as % of control activity) ([1]; Trypsin digestion, 100 μg/ml, 37° C., 16 hours): 100 % of control activity
Relative antifungal activity (shown as % of control activity) ([1]; pH 2, 60 min): 100 % of control activity
Relative antifungal activity (shown as % of control activity) ([1]; pH 3, 60 min): 100 % of control activity
Relative antifungal activity (shown as % of control activity) ([1]; pH 10, 60 min): 100 % of control activity
Relative antifungal activity (shown as % of control activity) ([1]; pH 11, 60 min): 100 % of control activity
Sensitivity to protease (in words) ([1]; pronase E): most sensitive
IC50 [2]: 6 µg/mL
IC50 [3]: 6 µg/mL
IC50 [4]: 2 µg/mL
IC50 [5]: 1 µg/mL
IC50 [6]: 3 µg/mL
IC50 [7]: 5 µg/mL
IC50 [8]: 10 µg/mL
IC50 [9]: 0.5 µg/mL
IC50 [10]: 6 µg/mL
IC50 [11]: 20 µg/mL
IC50 [12]: 0.5 µg/mL
IC50 [13]: 0.5 µg/mL
IC50 [14]: 1 µg/mL
Inhibitory activity against yeast ([15]; with Ca/K, 5 μg/ml): -
Inhibitory activity against yeast ([15]; with Ca/K, 50 μg/ml): +++
Inhibitory activity against yeast ([15]; with Ca/K, 500 μg/ml): +++
Inhibitory activity against yeast ([15]; without Ca/K, 5 μg/ml): +++
Inhibitory activity against yeast ([15]; without Ca/K, 50 μg/ml): +++
Inhibitory activity against yeast ([15]; without Ca/K, 500 μg/ml): +++
IC50 [16, 21]: 10 µg/mL
IC50 ([16]; MEDIUM -Ca/K): 2 µg/mL
IC50 [17, 21]: > 500 µg/mL
IC50 ([17]; MEDIUM -Ca/K): > 500 µg/mL
IC50 [18, 21]: > 500 µg/mL
IC50 ([18]; MEDIUM -Ca/K): > 500 µg/mL
IC50 [19, 21]: > 500 µg/mL
IC50 ([19]; MEDIUM -Ca/K): 50 µg/mL
pI [20]: about 10.5

B1: UDA: known antifungal protein isolated from stinging nettle (Urtica dioica) rhizomes (protein, UniProt P11218 24-372, looked up)
Lectin/endochitinase 1: QRCGSQGGGGTCPALWCCSIWGWCGDSEPYCGRTCENKCWSGERSDHRCGAAVGNPPCGQDRCCSVHGWCGGGNDYCSGSKCQYRCSSSVRGPRVALSGNSTANSIGNVVVTEPLFDQMFSHRKDCPSQGFYSYHSFLVAAESFPAFGTIGDVATRKREVAAFLAHISQATSGERSDVENPHAWGLCHINTTTVTENDFCTSSDWPCAAGKKYSPRGPIQLTHNFNYGLAGQAIGEDLIQNPDLVEKDPIISFKTALWFWMSQHDNKPSCHDIVLNANSAANRIPNKGVIGNIISRAFGHDDFAVRSSSIGFYKRYCDMLGVSYGHDLKYWFDNTPSSEFQRIQMRVAA
IC50 [2]: 200 µg/mL
IC50 [3]: 1,000 μg/ml
IC50 [4]: > 1,000 μg/ml
IC50 [5]: 20 µg/mL
IC50 [6]: > 1,000 μg/ml
IC50 [7]: > 1,000 μg/ml
IC50 [9]: 200 µg/mL
IC50 [10]: 50 µg/mL
IC50 [11]: 200 µg/mL
IC50 [13]: 80 µg/mL
IC50 [14]: 1,000 μg/ml
IC50 [16, 21]: > 500 µg/mL
IC50 ([16]; MEDIUM -Ca/K): 250 µg/mL
IC50 [17, 21]: > 500 µg/mL
IC50 ([17]; MEDIUM -Ca/K): > 500 µg/mL
IC50 [18, 21]: > 500 µg/mL
IC50 ([18]; MEDIUM -Ca/K): > 500 µg/mL
IC50 [19, 21]: > 500 µg/mL
IC50 ([19]; MEDIUM -Ca/K): > 500 µg/mL
